{"source": "patent US8697369B2", "about": "“Method for screening a test substance for activating a receptor associated with FGF 21 activity” (National Institute of Advanced Industrial Science and …, priority 2007, dated 2014)", "molecules": {"B1": {"name": "humanized FGF21: FGF21 protein with human amino acid sequence, prepared in Escherichia coli from human cDNA (protein)", "chain": "HPIPDSSPLLQFGGQVRQRYLYTDDAQQTEAHLEIREDGTVGGAADQSPESLLQLKALKPGVIQILGVKTSRFLCQRPDGALYGSLHFDPEACSFRELLLEDGYNVYQSEAHGLPLHLPGNKSPHRDPAPRGPARFLPLPGLPPALPEPPGILAPQPPDVGSSDPLSMVGPSQGRSPSYAS"}}, "assay_type_in_all_cases": "cell-based", "key": {"[1]": {"biological_target": "T1, humanized FGFR1c/humanized betaKlotho (hβKlotho)-expressing cells (Homo sapiens, UniProt P11362+Q86Z14)", "T1 construct": "expressed in transfected cells; host or cells: BaF3 (mouse pro-B) cells; pSRalpha (FGFR1c), pcDNA3.1 (betaKlotho)", "T1 sequence (P11362 22-822)": "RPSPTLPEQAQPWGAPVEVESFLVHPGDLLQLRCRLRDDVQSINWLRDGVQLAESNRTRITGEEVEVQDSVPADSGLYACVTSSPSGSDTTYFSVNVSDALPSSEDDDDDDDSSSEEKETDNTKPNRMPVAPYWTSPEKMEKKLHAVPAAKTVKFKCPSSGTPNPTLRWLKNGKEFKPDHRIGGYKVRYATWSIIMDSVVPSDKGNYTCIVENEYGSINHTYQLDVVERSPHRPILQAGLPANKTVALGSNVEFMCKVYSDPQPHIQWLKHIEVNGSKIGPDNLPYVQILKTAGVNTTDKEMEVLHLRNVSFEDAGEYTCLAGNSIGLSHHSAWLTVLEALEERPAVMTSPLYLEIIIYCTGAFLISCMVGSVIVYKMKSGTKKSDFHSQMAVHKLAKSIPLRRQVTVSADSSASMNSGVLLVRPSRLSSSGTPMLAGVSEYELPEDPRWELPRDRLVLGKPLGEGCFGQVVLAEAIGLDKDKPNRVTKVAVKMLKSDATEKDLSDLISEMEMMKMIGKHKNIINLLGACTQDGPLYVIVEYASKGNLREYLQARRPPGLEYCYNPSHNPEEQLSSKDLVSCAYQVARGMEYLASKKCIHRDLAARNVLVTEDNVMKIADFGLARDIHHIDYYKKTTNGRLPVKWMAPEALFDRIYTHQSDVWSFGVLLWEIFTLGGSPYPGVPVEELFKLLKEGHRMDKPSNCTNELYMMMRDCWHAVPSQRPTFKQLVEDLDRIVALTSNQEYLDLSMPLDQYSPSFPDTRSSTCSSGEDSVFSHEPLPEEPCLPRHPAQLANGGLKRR", "T1 sequence (Q86Z14 whole entry)": "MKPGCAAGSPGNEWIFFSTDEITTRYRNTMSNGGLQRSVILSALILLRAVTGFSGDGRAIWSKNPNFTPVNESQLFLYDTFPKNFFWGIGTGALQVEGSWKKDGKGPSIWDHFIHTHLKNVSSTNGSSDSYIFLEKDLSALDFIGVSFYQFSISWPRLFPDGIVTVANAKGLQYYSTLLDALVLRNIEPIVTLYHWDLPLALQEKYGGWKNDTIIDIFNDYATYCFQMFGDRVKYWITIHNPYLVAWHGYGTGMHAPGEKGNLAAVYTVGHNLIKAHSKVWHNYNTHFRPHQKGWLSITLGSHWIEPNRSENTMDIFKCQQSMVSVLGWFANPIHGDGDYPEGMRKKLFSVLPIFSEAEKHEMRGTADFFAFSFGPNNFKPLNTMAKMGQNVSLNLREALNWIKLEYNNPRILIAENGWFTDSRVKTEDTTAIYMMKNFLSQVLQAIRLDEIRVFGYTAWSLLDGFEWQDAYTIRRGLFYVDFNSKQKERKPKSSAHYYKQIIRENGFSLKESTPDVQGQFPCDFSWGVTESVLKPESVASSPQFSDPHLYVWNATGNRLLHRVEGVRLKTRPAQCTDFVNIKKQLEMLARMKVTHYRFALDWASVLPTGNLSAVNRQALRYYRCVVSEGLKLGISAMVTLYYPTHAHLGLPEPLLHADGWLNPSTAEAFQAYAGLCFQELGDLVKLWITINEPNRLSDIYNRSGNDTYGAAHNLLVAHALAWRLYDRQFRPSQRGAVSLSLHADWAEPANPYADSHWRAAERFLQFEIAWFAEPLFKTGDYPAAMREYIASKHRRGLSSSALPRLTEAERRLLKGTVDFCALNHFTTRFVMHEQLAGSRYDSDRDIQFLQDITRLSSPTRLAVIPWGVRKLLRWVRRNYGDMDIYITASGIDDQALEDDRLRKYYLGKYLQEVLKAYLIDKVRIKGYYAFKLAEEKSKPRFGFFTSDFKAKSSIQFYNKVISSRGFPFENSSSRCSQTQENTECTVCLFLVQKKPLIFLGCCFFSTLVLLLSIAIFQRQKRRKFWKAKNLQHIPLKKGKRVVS", "assay": "DNA synthesis in humanized FGFR1c/humanized betaKlotho-expressing BaF3 cells", "settings": "humanized FGFR1c and humanized betaKlotho; 10 μg/ml heparin", "source_text": "(§1) In Examples 4, 5, 6, and 7, it was shown that FGF21 reacts with FGFR1c in the presence of betaKlotho. FGFR1c, betaKlotho, FGF21, and the like, which were used in an actual experimental system, were all derived from mice used as typical mammalian models. With regard to these molecules, the homology between a human and a mouse at the amino acid sequence level is extremely high (80% in FGF21, 78% in betaKlotho, and 98% in FGFR1). As a result, naturally, there are no problems regarding the compatibility of the human with the mouse, and thus it is clear that the same results as those from a murine molecule will be obtained even using a humanized molecule. In the present example, as a precautionary measure, an experimental system using a humanized molecule was constructed to confirm such respect, and an experiment was carried out. Specifically, the humanized cDNA of FGFR1c and that of betaKlotho were prepared from a commercially available human RNA sample (Takara Bio Inc.) by PCR. FGFR1c was introduced into an expression vector having an SRalpha promoter (pSRalpha), and betaKlotho was introduced into an expression vector having a CMV promoter (pcDNA3.1; Invitrogen). […] In the presence of heparin, humanized FGF21 was added in various types of concentrations to FGFR1c-expressing cells or FGFR1c/betaKlotho-co-expressing cells, and the amount of DNA synthesized was then measured."}, "[2]": {"biological_target": "T2, humanized FGFR3c/humanized betaKlotho (hβKlotho)-expressing cells (Homo sapiens, UniProt P22607+Q86Z14, A441S/A461E/A470D/A499P/A500N/A559S/A717S/A734V/A765M/C582S/D512S/D516E/D576E/D580N/D722E/D758Q/D785E/DEL405-414/E426D/E447G/E729D/E768D/F566Y/F579Y/F591S/F767L/G446S/G448T/G548D/G773S/G774F/H721N/I440P/I494L/I698V/I726M/INS417HSQMAVHKLAKSI/INS423TV/INS780T/K420R/K464R/K501R/K583H/L398M/L425A/L457Y/L554I/L645I/L752V/M488L/N428S/N434G/N453G/N644H/P401G/P402T/P436L/P502V/P584N/P778R/Q611K/Q775P/R397K/R399K/R416D/R498K/R568Q/S432N/S468P/S578C/S781C/T435V/T450M/T473V/T504K/T581P/T590S/T753A/T757N/V503T/V523I/V642I/V670I/V751I/V754L)", "T2 construct": "expressed in transfected cells; host or cells: BaF3 (mouse pro-B) cells", "T2 sequence (P22607 other isoform, or with tags, fused parts or gaps with the stated changes)": "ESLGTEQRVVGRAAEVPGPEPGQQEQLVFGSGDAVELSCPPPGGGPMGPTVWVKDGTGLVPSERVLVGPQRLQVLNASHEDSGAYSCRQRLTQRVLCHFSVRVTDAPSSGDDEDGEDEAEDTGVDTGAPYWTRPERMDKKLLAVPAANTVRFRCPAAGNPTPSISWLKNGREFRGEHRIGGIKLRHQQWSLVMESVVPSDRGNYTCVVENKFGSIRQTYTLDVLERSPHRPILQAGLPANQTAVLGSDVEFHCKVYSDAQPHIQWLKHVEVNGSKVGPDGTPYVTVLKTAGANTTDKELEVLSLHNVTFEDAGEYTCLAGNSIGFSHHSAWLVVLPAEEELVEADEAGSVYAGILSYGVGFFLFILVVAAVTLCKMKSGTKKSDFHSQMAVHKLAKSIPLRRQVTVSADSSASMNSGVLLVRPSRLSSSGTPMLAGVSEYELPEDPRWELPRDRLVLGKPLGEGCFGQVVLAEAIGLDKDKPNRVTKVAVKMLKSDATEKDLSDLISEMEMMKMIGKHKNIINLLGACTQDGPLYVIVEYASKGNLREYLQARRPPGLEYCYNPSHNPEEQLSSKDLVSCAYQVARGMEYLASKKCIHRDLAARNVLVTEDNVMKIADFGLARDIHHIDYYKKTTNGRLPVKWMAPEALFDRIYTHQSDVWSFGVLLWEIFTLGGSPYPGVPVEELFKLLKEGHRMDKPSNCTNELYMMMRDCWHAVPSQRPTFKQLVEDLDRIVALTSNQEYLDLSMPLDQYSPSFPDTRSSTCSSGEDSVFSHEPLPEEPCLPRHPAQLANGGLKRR", "T2 sequence (Q86Z14 whole entry, stated change not applied)": "as the sequence (Q86Z14 whole entry) above", "assay": "DNA synthesis in humanized FGFR3c/humanized betaKlotho-expressing BaF3 cells", "settings": "humanized FGFR3c and humanized betaKlotho; 10 μg/ml heparin", "procedure": "(§2) The homology between human FGFR3 and mouse FGFR3 at the amino acid sequence level is 93%. […] The cDNA of humanized FGFR3c was prepared from a commercially available human RNA sample (Takara Bio Inc.) by PCR. The sequence of its intracellular portion was substituted with the sequence of humanized FGFR1, and it was then introduced into an expression vector having an SRalpha promoter (pSRalpha). The FGFR3c expression vector was introduced into BaF3 cells by an electroporation method, so as to obtain FGFR3c-expressing BaF3 cells as G418-resistant clones. In the case of FGFR3c/betaKlotho-co-expressing cells, a betaKlotho expression vector was introduced into the FGFR3c-expressing BaF3 cells, so as to obtain the aforementioned cells as Puromycin-resistant clones. In the presence of heparin, humanized FGF21 was added in various types of concentrations to FGFR3c-expressing cells or FGFR3c/betaKlotho-co-expressing cells, and the amount of DNA synthesized was then measured."}, "[3]": {"biological_target": "T3, humanized FGFR3c (hR3c)-expressing BaF3 cells (Homo sapiens, UniProt P22607, A441S/A461E/A470D/A499P/A500N/A559S/A717S/A734V/A765M/C582S/D512S/D516E/D576E/D580N/D722E/D758Q/D785E/DEL405-414/E426D/E447G/E729D/E768D/F566Y/F579Y/F591S/F767L/G446S/G448T/G548D/G773S/G774F/H721N/I440P/I494L/I698V/I726M/INS417HSQMAVHKLAKSI/INS423TV/INS780T/K420R/K464R/K501R/K583H/L398M/L425A/L457Y/L554I/L645I/L752V/M488L/N428S/N434G/N453G/N644H/P401G/P402T/P436L/P502V/P584N/P778R/Q611K/Q775P/R397K/R399K/R416D/R498K/R568Q/S432N/S468P/S578C/S781C/T435V/T450M/T473V/T504K/T581P/T590S/T753A/T757N/V503T/V523I/V642I/V670I/V751I/V754L)", "T3 construct": "expressed in transfected cells; host or cells: BaF3 (mouse pro-B) cells; pSRalpha vector", "T3 sequence (P22607 other isoform, or with tags, fused parts or gaps with the stated changes)": "as the sequence (P22607 other isoform, or with tags, fused parts or gaps with the stated changes) above", "assay": "DNA synthesis in humanized FGFR3c-expressing BaF3 cells", "settings": "humanized FGFR3c only; 10 μg/ml heparin", "procedure": "as §2"}, "[4]": {"biological_target": "T4, humanized FGFR1c (hR1c)-expressing BaF3 cells (Homo sapiens, UniProt P11362)", "T4 construct": "expressed in transfected cells; host or cells: BaF3 (mouse pro-B) cells; pSRalpha vector", "T4 sequence (P11362 22-822)": "as the sequence (P11362 22-822) above", "assay": "DNA synthesis in humanized FGFR1c-expressing BaF3 cells", "settings": "humanized FGFR1c only; 10 μg/ml heparin", "source_text": "as §1"}}, "note": "Entries after “also recorded” stand apart in the source; their conditions may differ."}
{"molecule": "B1", "values": [{"measurement": "amount of DNA synthesized (thymidine incorporation)", "setting": "[1]", "result": "activated; also recorded: increased the amount of thymidine incorporated into the cells in a dose-dependent manner"}, {"measurement": "amount of DNA synthesized (thymidine incorporation)", "setting": "[2]", "result": "activated; also recorded: increased the amount of thymidine incorporated into the cells in a dose-dependent manner"}, {"measurement": "amount of DNA synthesized (thymidine incorporation)", "setting": "[3]", "result": "activated only the FGFR3c/betaKlotho-co-expressing cells"}, {"measurement": "amount of DNA synthesized (thymidine incorporation)", "setting": "[4]", "result": "activated only the FGFR1c/betaKlotho-co-expressing cells"}]}
